Paper PMC4145800

Biological target: T1, wild-type (polymerization-competent) yeast αβ-tubulin, P09733;P02557
T1 chain 1: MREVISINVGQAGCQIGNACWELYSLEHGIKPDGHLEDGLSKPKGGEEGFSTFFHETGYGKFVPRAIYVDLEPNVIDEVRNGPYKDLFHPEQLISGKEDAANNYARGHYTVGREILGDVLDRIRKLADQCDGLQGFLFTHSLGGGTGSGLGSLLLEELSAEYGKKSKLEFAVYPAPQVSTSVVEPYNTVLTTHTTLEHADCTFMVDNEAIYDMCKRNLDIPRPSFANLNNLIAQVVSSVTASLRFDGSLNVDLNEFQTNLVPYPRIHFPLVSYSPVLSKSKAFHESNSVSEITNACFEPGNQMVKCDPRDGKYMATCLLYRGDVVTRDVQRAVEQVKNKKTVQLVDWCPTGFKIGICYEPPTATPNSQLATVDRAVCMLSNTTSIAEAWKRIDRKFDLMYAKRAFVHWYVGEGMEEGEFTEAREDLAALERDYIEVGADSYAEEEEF
T1 chain 2: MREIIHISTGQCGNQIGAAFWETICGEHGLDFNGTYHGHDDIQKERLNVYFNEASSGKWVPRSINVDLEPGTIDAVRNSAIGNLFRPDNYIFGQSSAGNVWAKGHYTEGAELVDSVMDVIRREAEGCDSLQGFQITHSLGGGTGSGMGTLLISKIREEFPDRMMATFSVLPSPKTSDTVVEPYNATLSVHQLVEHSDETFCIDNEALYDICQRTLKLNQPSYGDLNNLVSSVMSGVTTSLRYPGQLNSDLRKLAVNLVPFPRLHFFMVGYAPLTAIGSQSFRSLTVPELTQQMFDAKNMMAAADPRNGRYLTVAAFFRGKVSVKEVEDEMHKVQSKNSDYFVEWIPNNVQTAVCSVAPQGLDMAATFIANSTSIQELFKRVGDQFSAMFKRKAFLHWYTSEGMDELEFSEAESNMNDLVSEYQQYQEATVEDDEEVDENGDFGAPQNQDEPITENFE
Test: sedimentation velocity AUC
Conditions: chain shown with the change; [TOG1-TOG2] = 1.7 µM; [αβ] = 0.35 µM

other: sedimentation coefficient of the TOG1-TOG2:αβ-tubulin complex (s20,w): 7.1 S
B1: TOG1-TOG2(1-560) of Stu2p, P46675 W341A (protein)
chain: MSGEEEVDYTTLPLEERLTYKLWKARLEAYKELNQLFRNSVGDISRDDNIQIYWRDPTLFAQYITDSNVVAQEQAIVALNSLIDAFASSSLKNAHNITLISTWTPLLVEKGLTSSRATTKTQSMSCILSLCGLDTSITQSVELVIPFFEKKLPKLIAAAANCVYELMAAFGLTNVNVQTFLPELLKHVPQLAGHGDRNVRSQTMNLIVEIYKVTGNNSDLLEEILFKKLKPIQVKDLHKLFAKVGDEPSSSKMLFEWEKRELEKKRSQEEEARKRKSILSNDEGEYQIDKDGDTLMGMETDMPPSKQQSGVQIDTFSMLPEETILDKLPKDFQERITSSKAKDRVEALEEFWDSVLSQTKKLKSTSQNYSNLLGIYGHIIQKDANIQAVALAAQSVELICDKLKTPGFSKDYVSLVFTPLLDRTKEKKPSVIEAIRKALLTICKYYDPLASSGRNEDMLKDILEHMKHKTPQIRMECTQLFNASMKEEKDGYSTLQRYLKDEVVPIVIQIVNDTQPAIRTIGFESFAILIKIFGMNTFVKTLEHLDNLKRKKIEETVKTL
